The labels stand for the following.
B1: C8 (antibody, V domains shown)
VH: EVQLQQSGADLVKSGASVKLSCTASGFNIKDYYIHWVKQRTAQGLEWIGRITPEDGETEYAPTFQVKATITADTSSNTAYLQLNSLTSEDTAVYYCSLGDYDVSPFAYWGQGTLVTVSA
VL: DIQMTQSPASQSASLGESVTITCLASQTIGTWLAWYQQKPGKSPQLLIYAATSLADGVPSRFSGSGSGTKFSFKISSLQAEDFVSYYCQQLYSTPYTFGGGTKLEIK
notes: first hybridoma campaign
B2: E13 (antibody, V domains shown)
VH: QVQLQQPGAELVMPGASVKLSCKASGYTFTRYWIHWVRQRPGQGLEWIGEIDPSDSYTNHNQKFKDKATLTVDKSSSTAYMQLSSLTSEDSAVYFCANSNYDYWGQGTTLTVSS
VL: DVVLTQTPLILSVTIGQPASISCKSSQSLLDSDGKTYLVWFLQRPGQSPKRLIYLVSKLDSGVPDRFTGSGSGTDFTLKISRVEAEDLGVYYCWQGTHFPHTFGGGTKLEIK
notes: first hybridoma campaign
B3: C1 (antibody, V domains shown)
VH: QIQLVQSGPELKKPGETVKISCKASGYTFTTYGMSWVKQAPGKGLKWMGWINTYSGVPTYADDFQGRFAFSLETSASTAYLQINNLKNEDTAPYFCVRDGYAAPYWGQGTLVTVSA
VL: NIMMTQSPSSLAVSAGEKVTMRCKSSQSVLYSSNQKNYLAWYQQKPGQSPKLLIYWASTRESGVPDRFTGSGSGTDFTLTISSVQAEDLAVYYCHQYLSSWTFGGGTKLEIK
notes: first hybridoma campaign
B4: C2 (antibody, V domains shown)
VH: QVQLQQSGAELVRPGASVTLSCKAAGYTFADYEMHWVRQTPVLGLEWIGAIDSEPGRTVYNQKFKSKAILTADKSSSTAYMELRSLTSDDSAVYYCTRRGAFYTNYDFFDYWGQGTTLTVSS
VL: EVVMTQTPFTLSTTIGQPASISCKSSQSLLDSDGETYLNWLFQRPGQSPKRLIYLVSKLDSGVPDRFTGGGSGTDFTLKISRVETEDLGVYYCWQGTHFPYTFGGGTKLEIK
notes: first hybridoma campaign
B5: C7 (antibody, V domains shown)
VH: QVQLQQSGAELARPGTSVKLSCKASGYIFTDYAISWVKQRTGQGLQWIGEIYPGSDNAYYNENFKGKATLTADKSSNTAYMELRSLTSEDSAVYFCAKWAGSLFDFWGQGTALTVSS
VL: DIVMTQSQKFMSTSVGDRVSVTCKASRNVGFNVAWYQQNPGQSPKALIYSASYRYSGVPDRFTGSGSGTDFTLTISDVQSEDLAEYFCHQYNSYPYTFGGGTKLEIR
notes: first hybridoma campaign
B6: hPA-002 (antibody, V domains shown)
VH: QVTLQESGPGILQPSQTLSLTCSFSGFSLSTFGMGVGWIRQPSGKGLEWLAHIWWDDDKYYNPALKSRLTISKDTSKNQVFLKIASVDTADIATYYCARVEDYGNPFDYWGQGTTL
VL: DIQMNQSPSSLSASLGDTITITCHASQNIHVWLNWYQQKPGNIPKLLIYKASNLHTGVPSRFSGSGSGTGFTVTISSLQPEDIATYYCQQGQSYPLTFGAGTKLELK
B7: hPA-005 (antibody, V domains shown)
VH: QVILKESGPGILQSSQTLSLTCSFSGFSLSTFGMGVGWIRQPSGKGLESLAHIWWDDDKFYNPALKSRLTISKDTSKSQVFLKIANVDTADIATYYCTRIEDYGSYFAYWGQGTTLTVSS
VL: B6 VL with I2V, T18P, K39R, K45R, V73L, L96Y, A100G, L106I
B8: A16 (hIgG4 isotype) (antibody, V domains shown)
VH: QVQLVQSGAEVKKPGSSVKVSCKASGYNFLNYDVNWVRQAPGQGLEWMGGIIPIFGTANYAQKFQGRVTITADESTSTAYMELSSLRSEDTAVYYCATGVGAGWFDPWGQGTLVTVSS
VL: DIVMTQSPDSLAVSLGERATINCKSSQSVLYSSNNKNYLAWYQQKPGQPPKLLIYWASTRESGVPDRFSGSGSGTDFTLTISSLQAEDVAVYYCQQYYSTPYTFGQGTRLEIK
B9: B1 (hIgG4 isotype) (antibody, V domains shown)
VH: DVKLVESGGGLVKLGGSLKLSCAASGFTFSSYYMSWVRQTPEKRLEWVAAINSNGDRSYYPDTVKGRFTISRDNAKNTLYLQMSSLKSEDTAFYYCASHGNYYGSPWFAYWGQGTLVTVSA
VL: ETTVTQSPASLSVATGEKVTIRCKTSTDIDDDMNWYQQKPGEPPKLLISEGNTLRPGVPSRFSSSGYGTDFVFTIENTLSEDVADYYCLQNDHMPLTFGGGTKLEIK
B10: hPA-002 (hIgG4 isotype) (antibody, V domains shown)
VH: B6 VH
VL: B6 VL
B11: B3 (hIgG4 isotype) (antibody, V domains shown)
VH: EVKLVESGGGLVKPGGSLKLSCTASGFTFSNYAMSWVRQTPEKRLEWVASISGGGSTYYPDSVKGRFTIAIDYARNILYLQMSSLRSEDTAIYFCTRGVSYGDYAMDYWGQGTSVTVSS
VL: ETTVTQSPASLSMAIGEKVTIRCVTSTDIDDDMNWYQQKPGGPPKLLISEGNTLRPGVPSRFSSSGYGSDFVFTIEDMLSEDVADYYCLQSDNLPLTFGAGTKVELK

Residue numbers refer to the chain shown, from its start.

T6 sequence (Q9UKJ1 20-197 limits assumed): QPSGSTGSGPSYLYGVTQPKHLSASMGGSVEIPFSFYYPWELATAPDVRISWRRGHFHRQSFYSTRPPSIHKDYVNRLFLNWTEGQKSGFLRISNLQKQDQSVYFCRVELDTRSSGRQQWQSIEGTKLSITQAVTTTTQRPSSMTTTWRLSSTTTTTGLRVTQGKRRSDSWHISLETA
T5 sequence (Q2YFS2 29-224): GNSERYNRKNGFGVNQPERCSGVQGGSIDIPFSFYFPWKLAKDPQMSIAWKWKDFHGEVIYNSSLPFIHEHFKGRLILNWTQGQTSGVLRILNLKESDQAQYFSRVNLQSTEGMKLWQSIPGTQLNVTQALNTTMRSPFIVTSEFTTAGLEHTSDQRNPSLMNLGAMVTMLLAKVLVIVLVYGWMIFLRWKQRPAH
cynomolgus PILRA, ectopically expressed on 293 cells (cynomolgus monkey), sequence (chain, as listed by the source): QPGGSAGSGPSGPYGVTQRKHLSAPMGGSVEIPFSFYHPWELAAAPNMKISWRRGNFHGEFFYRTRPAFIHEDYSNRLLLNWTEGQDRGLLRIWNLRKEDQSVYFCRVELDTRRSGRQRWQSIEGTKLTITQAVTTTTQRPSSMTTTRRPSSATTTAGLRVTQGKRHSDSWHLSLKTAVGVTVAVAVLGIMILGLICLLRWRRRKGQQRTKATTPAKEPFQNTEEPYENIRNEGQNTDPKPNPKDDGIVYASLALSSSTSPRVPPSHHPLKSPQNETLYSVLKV

The target in one assay is T1, human PILRA, G78 variant, ectopically expressed on 293 cells (human, UniProt Q9UKJ1 20-303).
T1 construct: the cells are labelled G78; also called hA G78 OE; hA
T1 sequence (Q9UKJ1 other isoform, or with tags, fused parts or gaps mutant): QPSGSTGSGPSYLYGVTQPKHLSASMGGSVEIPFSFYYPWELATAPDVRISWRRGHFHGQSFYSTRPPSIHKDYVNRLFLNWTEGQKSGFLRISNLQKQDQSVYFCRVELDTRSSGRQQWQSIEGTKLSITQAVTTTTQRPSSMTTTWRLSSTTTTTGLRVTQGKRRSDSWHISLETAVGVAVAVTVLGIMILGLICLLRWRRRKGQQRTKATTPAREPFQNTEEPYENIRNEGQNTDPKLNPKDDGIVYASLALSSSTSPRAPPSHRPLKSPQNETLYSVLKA
The experiment in a line: flow cytometry; NPDC1-mIgGa binding to 293 cells expressing human PILRA G78 with antibody, relative to NPDC1 Fc alone. How it is done:
Conditioned media samples containing antibodies (10 ug/ml) were assessed for modulating the binding of Neural Proliferation Differentiation and Control Protein 1 (NPDC1) Fc to 293 cells ectopically expressing human PILRA. Briefly, conditioned media samples containing antibodies were incubated with 293 cells expressing human PILRA for 30 minutes at 4° C., and then 5 μg/ml NPDC1 Fc was added to this mixture. Where the antibodies were generated from phage panning, a NPDC1-hIgG1 ligand was used. Where the antibodies were generated from hybridomas, a NPDC1-mIgGa ligand was used. After 30 minutes incubation at 4° C., cells were washed and cell-bound NPDC1 Fc was detected with anti-human or mouse IgG Alexa 647. Cells were analyzed by flow cytometry on FACS Canto II, and for all cell lines, the percentage of NPDC1 Fc binding in the presence of conditioned media relative to NPDC1 Fc binding alone was calculated. Several antibodies decreased binding of NPDC1 to human PILRA, and a few antibodies enhanced ligand binding to human PILRA. Antibodies that show enhancement in this assay may block cis inhibition to promote trans interactions or may allosterically activate to enhance trans interactions without blocking cis.
In the case of B1, the “% Binding” value came to 69.7%.

For B2, the “% Binding” value was 110%.

As to B3, the “% Binding” value was found to be 158%.

Take B4: the “% Binding” value is 177%.

For B5, the “% Binding” value amounted to 35.9%.

The target in another assay is T2, PILRA Fc (soluble human PILRA) (human, UniProt Q9UKJ1 20-197, limits assumed).
T2 construct: also called soluble PILRA; not shown: Fc part, detected with anti-human IgG
T2 sequence (Q9UKJ1 20-197 limits assumed): as the sequence (Q9UKJ1 20-197 limits assumed) above
Kind of assay: flow cytometry; PILRA Fc binding to human CD3+ T cells with antibody, relative to PILRA Fc alone. How it is done:
(§1) The ability of conditioned media samples containing antibodies to inhibit the binding of PILRA Fc to human CD3+ T cells was assessed. Briefly, conditioned media samples containing antibodies were incubated with 1.25 ug/ml PILRA Fc for 30 min at 4° C. and then added to human T cells. After 30 minutes incubation at 4° C., cells were washed, and bound PILRA Fc was detected with anti-human IgG Alexa 647. Cells were analyzed by flow cytometry on FACS Canto II, and for all cell lines, the amount of PILRA Fc binding (MIFI) and the percentage of PILRA Fc binding in the presence of conditioned media relative to PILRA Fc binding alone was calculated. Several antibodies inhibited binding of PILRA Fc to human T cells, and a few antibodies enhanced PILRA-Fc binding to T cells. Antibodies that show enhancement in this assay may block cis inhibition to promote trans interactions or may allosterically activate to enhance trans interactions without blocking cis.
(Flow cytometry measures light scatter and fluorescence of single cells or particles in a stream.)
As for B1, the “% Binding” value was found to be 33.2%.

Consider B2, for which the “% Binding” value worked out at 82%.

Turning to B3, the “% Binding” value was 60%.

Consider B4, for which the “% Binding” value came to 66.2%.

Consider B5, for which the “% Binding” value turned out to be 8.1%.

In another assay the target is T2, PILRA Fc (soluble human PILRA). The experiment in a line: flow cytometry blocking assay, graph 'V1 Blocking_CD3+T Donor 906': antibody mixed with PILRA-Fc, then human CD3+ T cells; bound PILRA-Fc detected with AF647 2nd Ab; blocked partner: PILRA ligand on the T cells. How it is done:
as §1
For the molecule B6, the “IC50 (read off the curve)” value was approximately 1 µg/mL.

Consider B7, for which the “IC50 (read off the curve)” value was approximately 3 µg/mL.

In the next assay the target is human PILRA on the surface of primary human macrophages or monocytes (human, UniProt Q9UKJ1 20-303). Kind of assay: cell-based or functional assay.
human PILRA on the surface of primary human macrophages or monocytes, sequence (Q9UKJ1 20-303): as the sequence (Q9UKJ1 other isoform, or with tags, fused parts or gaps mutant) above, with G59R counted along it
Take B8: the “hPILRA downregulation EC50” value was found to be 0.4 µg/mL.

As for B9, the “hPILRA downregulation EC50” value is 0.009 µg/mL.

Turning to B10, the “hPILRA downregulation EC50” value is 0.48 µg/mL.

Turning to B11, the “hPILRA downregulation EC50” value turned out to be 0.006 µg/mL.

For the next assay, the target named is T3, human PILRB, ectopically expressed on 293 cells (human, UniProt Q9UKJ0 20-227).
T3 construct: also called hB
T3 sequence (Q9UKJ0 20-227): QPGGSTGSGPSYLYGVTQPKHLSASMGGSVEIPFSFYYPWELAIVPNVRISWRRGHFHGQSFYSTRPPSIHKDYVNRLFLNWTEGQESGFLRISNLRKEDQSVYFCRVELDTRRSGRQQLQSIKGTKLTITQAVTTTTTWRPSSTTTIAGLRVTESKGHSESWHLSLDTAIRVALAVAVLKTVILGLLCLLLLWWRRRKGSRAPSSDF
Kind of assay: flow cytometry, MFI relative to 293 parental cells. How it is done:
(§2) Briefly, conditioned media containing antibodies were incubated with 293 cells for 30 min at 4° C., washed twice, and then detected with anti-mouse IgG Alexa 647.
Regarding B1, the MFIr amounted to 1.2.

On to B2, for which the MFIr turned out to be 1.1.

B3: the MFIr worked out at 1.2.

As to B4, the MFIr is 1.1.

For B5, the MFIr was found to be 1.2.

A further assay deals with T4, murine PILRA, ectopically expressed on 293 cells (murine, UniProt Q2YFS3 32-302).
T4 construct: also called mA
T4 sequence (Q2YFS3 32-302): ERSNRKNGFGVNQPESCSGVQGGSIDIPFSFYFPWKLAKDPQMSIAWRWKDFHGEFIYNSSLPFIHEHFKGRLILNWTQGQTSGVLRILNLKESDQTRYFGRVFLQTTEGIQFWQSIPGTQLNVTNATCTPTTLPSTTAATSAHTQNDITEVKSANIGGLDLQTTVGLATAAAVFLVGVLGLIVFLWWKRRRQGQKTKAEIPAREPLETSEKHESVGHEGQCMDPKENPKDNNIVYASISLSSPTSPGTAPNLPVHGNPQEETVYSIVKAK
Kind of assay: flow cytometry, MFI relative to 293 parental cells. How it is done:
as §2
For B1, the MFIr turned out to be 0.9.

On to B2, for which the MFIr turned out to be 1.

Regarding B3, the MFIr was found to be 0.8.

For B4, the MFIr came out at 0.9.

As to B5, the MFIr was 0.3.

A further assay addresses cynomolgus PILRA, ectopically expressed on 293 cells (cynomolgus monkey). The experiment in a line: flow cytometry, MFI relative to 293 parental cells. How it is done:
as §2
Regarding B1, the MFIr was 0.8.

As to B2, the MFIr was determined as 0.8.

Regarding B3, the MFIr is 70.5.

B4: the MFIr is 2.7.

As to B5, the MFIr amounted to 0.3.

Another assay concerns the target T1, human PILRA, G78 variant, ectopically …. The experiment in a line: flow cytometry, MFI relative to 293 parental cells. On the procedure:
as §2
For the molecule B1, the MFIr was found to be 44.2.

With B2, the MFIr amounted to 36.1.

Turning to B3, the MFIr is 113.

In the case of B4, the MFIr is 102.

As to B5, the MFIr worked out at 202.

The next assay has as its target T5, murine PILRB, ectopically expressed on 293 cells (murine, UniProt Q2YFS2 29-224).
T5 construct: whole, on cells; also called mB
Kind of assay: flow cytometry, MFI relative to 293 parental cells. How it is done:
as §2
Consider B1, for which the MFIr was found to be 0.8.

Regarding B2, the MFIr was 0.8.

For the molecule B3, the MFIr is 0.8.

As for B4, the MFIr came out at 0.8.

As for B5, the MFIr stood at 0.3.

Another assay concerns the target T6, human PILRA, c-term His-Avi tag (human, UniProt Q9UKJ1 20-197, limits assumed).
T6 construct: not shown: C-terminal His-Avi tag
Kind of assay: SPR (Biacore), antibody captured, PILRA as analyte. In outline: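 Antibodies were captured at 10 μg/ml on an anti-huFc or anti-msFc CM5 surface, and human PILRA was flowed at 33, 100 and 300 nM in HBSTE/0.5% BSA, pH 7.4. The surface was regenerated with 10 mM glycine-HCl, pH 2.1, after each analyte. Curves were double-referenced with buffer injections.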
As usually defined, the Kd is a measure of binding affinity in units of concentration. Low readings indicate a tighter complex, high ones a looser complex. By koff is commonly meant a measure of how fast the partners let go of each other. Read a high koff as a short-lived complex. One may read the kon as the second-order rate constant of association. A higher kon goes with faster complex formation. What is called t½ is the time needed for the level to fall by half in the phase considered. High values mean slow decline, low ones rapid decline. For B6, the Kd was 23.4 nM, the koff came out at 0.0052 s⁻¹, the association rate constant (kon) was 220000 M⁻¹ s⁻¹ and the t½ was determined as 2.2 min.

B7 showed a Kd of 7 nM, a koff of 0.0015 s⁻¹, a kon of 210000 M⁻¹ s⁻¹ and a t½ of 7.9 min.

B2: the Kd was found to be 10.5 nM, the off-rate constant (koff) was found to be 0.0036 s⁻¹, the association rate constant (kon) was 340000 M⁻¹ s⁻¹ and the t½ was found to be 3.3 min.

Turning to B3, the Kd was found to be 45 nM, the off-rate (koff) turned out to be 0.0037 s⁻¹, the kon was found to be 81000 M⁻¹ s⁻¹ and the t½ is 3.2 min.

Molecule B4 returned a Kd of 2.2 nM, a koff of 0.0038 s⁻¹, a kon of 1.7e+06 M⁻¹ s⁻¹ and a t½ of 3.1 min.

For the origin of these results see patent US20240425587A1 (Alector, published 2024).
